The values that follow come from patent publication US20090253630A1.

This test has as its target PTHR-emGFP expressed in transfected HEK 293 cells. Put plainly: cell-based or functional assay.

Turning to “PTH(1-38) (from UniProt P01270 32-69) (peptide)”, the PTHR1 internalization at 20 min, 100 nM compound, percent of vehicle only control (baseline=100%) (% of vehicle only control) stood at 166; the PTHR1 internalization at 40 min, 100 nM compound, percent of vehicle only control (baseline=100%) (% of vehicle only control) was determined as 177; the PTHR1 internalization at 60 min, 100 nM compound, percent of vehicle only control (baseline=100%) (% of vehicle only control) is 224; the PTHR1 internalization at 180 min, 100 nM compound, percent of vehicle only control (baseline=100%) (% of vehicle only control) is 175.
